Reference: patent US20130129739A1 (Bayer, published 2013)
Positions count from the first letter of the chain named.

T1: extracellular domain of human PRLR (monomeric, soluble) (human, UniProt P16471 25-234)
T1 construct: also called ECD-PRLR; ECD of PRLR
T1 sequence: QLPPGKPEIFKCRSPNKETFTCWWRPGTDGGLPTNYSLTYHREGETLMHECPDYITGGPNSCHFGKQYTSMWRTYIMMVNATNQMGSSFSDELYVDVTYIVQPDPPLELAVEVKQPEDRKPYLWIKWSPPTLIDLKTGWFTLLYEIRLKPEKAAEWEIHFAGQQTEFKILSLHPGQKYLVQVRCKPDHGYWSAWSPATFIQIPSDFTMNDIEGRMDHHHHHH

B1: 005-C04-41-2 (Fab, V domains shown)
VH: EVQLLESGGGLVQPGGSLRLSCAASGFTFSSYWNHWVRQAPGKGLEWVSDISRASSYTNYADSVKGRFTISRDNSKNTLYLQMNSLRAEDTAVYYCARGLDARRMDYWGQGTLVTVTS
VL: QSVLTQPPSASGTPGQRVTISCTGSSSNIGYGYVVHWYQQLPGTAPKLLIYRNNQRPSGVPDRFSGSKSGTSASLAISGLRSEDEADYYCAAWDDSLNGWLFGGGTKLTVLG
notes: Maturated 005-C04 variant; Fab in E. coli supernatant, flag-detected
B2: 005-C04-47-3 (Fab, V domains shown)
VH: B1 VH with N34W, S56P
VL: B1 VL
notes: as for B1
B3: 005-C04-2-2 (Fab, V domains shown)
VH: B1 VH with I51M, S52A, A54L, S56P
VL: B1 VL with Q55V, P57Q
notes: as for B1
B4: 005-C04-L2-1-3-2 (Fab, V domains shown)
VH: B1 VH with I51M, S52A, A54L
VL: B1 VL with Y31A, Q55V, P57Q
notes: as for B1
B5: 005-C04-4-3-7 (Fab, V domains shown)
VH: B1 VH with N34M, R53S
VL: B1 VL
notes: as for B1
B6: 005-C04-46-1 (Fab, V domains shown)
VH: B1 VH with I51M, A54L, S56P
VL: B1 VL with Q55V, P57Q
notes: as for B1
B7: 005-C04-11-5 (Fab, V domains shown)
VH: B1 VH with N34W, A54L, S56P
VL: B1 VL with Q55V
notes: as for B1
B8: 005-C04-10-3 (Fab, V domains shown)
VH: B1 VH with N34W, S52A, A54L, S56P
VL: B1 VL with Q55V, P57Q
notes: as for B1
B9: 005-C04-40-4 (Fab, V domains shown)
VH: B1 VH with I51M, S52A, A54L
VL: B1 VL with Q55V, P57Q
notes: as for B1
B10: 005-C04-51-29-0 (Fab, V domains shown)
VH: B1 VH with N34M, S52A, R53S
VL: B1 VL with Y31A
notes: as for B1
B11: 005-C04-29-17-2 (Fab, V domains shown)
VH: B1 VH with N34M, R53S
VL: B1 VL with Y31A, N98G
notes: as for B1
B12: 005-C04-25-6 (Fab, V domains shown)
VH: B1 VH with N34W, I51M, A54L
VL: B1 VL with Q55V, P57Q
notes: as for B1
B13: 005-C04-8-6 (Fab, V domains shown)
VH: B1 VH with N34W, I51M
VL: B1 VL with S25Q, Y31A
notes: as for B1
B14: 005-C04-58-33-1 (Fab, V domains shown)
VH: B1 VH with N34M, R53S, N59G
VL: B1 VL with Y31A
notes: as for B1
B15: 005-C04-42-1 (Fab, V domains shown)
VH: B1 VH with A54L
VL: B1 VL with P57Q
notes: as for B1
B16: 005-C04-29-17-3 (Fab, V domains shown)
VH: B1 VH with N34M, R53S
VL: B1 VL with Y31A, N98F
notes: as for B1
B17: 005-C04-L2-1-2-3 (Fab, V domains shown)
VH: B1 VH with I51M, S52A, S56P, N59G
VL: B1 VL with Y31A, Q55W
notes: as for B1
B18: 005-C04-29-17-7 (Fab, V domains shown)
VH: B1 VH with N34M, R53S
VL: B1 VL with Y31A, N98L
notes: as for B1
B19: 005-C04-29-17-0 (Fab, V domains shown)
VH: B1 VH with N34M, R53S
VL: B1 VL with Y31A, N98S
notes: as for B1
B20: 005-C04-37-7 (Fab, V domains shown)
VH: B1 VH with N34W, R53S, A54L, N59G
VL: B1 VL with Q55W
notes: as for B1
B21: 005-C04-L2-1-11-0 (Fab, V domains shown)
VH: B1 VH with N34W, I51M, S52A, A54L
VL: B1 VL with Y31A, Q55V, P57Q
notes: as for B1
B22: 005-C04-50-28-3 (Fab, V domains shown)
VH: B1 VH with N34M, I51R, R53S
VL: B1 VL with Y31A
notes: as for B1
B23: 005-C04-52-29-7 (Fab, V domains shown)
VH: B1 VH with N34M
VL: B1 VL with Y31A
notes: as for B1
B24: 005-C04-45-1 (Fab, V domains shown)
VH: B1 VH
VL: B1 VL with Q55V
notes: as for B1
B25: 005-C04-21-1 (Fab, V domains shown)
VH: B1 VH with S52A, A54L, S56P
VL: B1 VL with Q55V, P57Q
notes: as for B1
B26: 005-C04-2-7 (Fab, V domains shown)
VH: B1 VH with N34W, S56P
VL: B1 VL with S25V, Y31A
notes: as for B1
B27: 005-C04-20-12-7 (Fab, V domains shown)
VH: B1 VH with N34M, R53S
VL: B1 VL with Y31A, P57Q
notes: as for B1
B28: 005-C04-20-2 (Fab, V domains shown)
VH: B1 VH with S52A, A54L
VL: B1 VL
notes: as for B1
B29: 005-C04-52-29-0 (Fab, V domains shown)
VH: B1 VH with N34M, R53W
VL: B1 VL with Y31A
notes: as for B1
B30: 005-C04-9-2 (Fab, V domains shown)
VH: B1 VH with N34W, S52A
VL: B1 VL with Q55W, P57Q
notes: as for B1
B31: 005-C04-29-0 (Fab, V domains shown)
VH: B1 VH with I51M
VL: B1 VL with P57Q
notes: as for B1
B32: 005-C04-18-10-4 (Fab, V domains shown)
VH: B1 VH with N34M, R53S
VL: B1 VL with Y31A, Q55W
notes: as for B1
B33: 005-C04-19-2 (Fab, V domains shown)
VH: B1 VH with I51M, S52A, A54L, S56P
VL: B1 VL with P57Q
notes: as for B1
B34: 005-C04-44-25-1 (Fab, V domains shown)
VH: B1 VH with R53S
VL: B1 VL with Y31A
notes: as for B1
B35: 005-C04-53-31-7 (Fab, V domains shown)
VH: B1 VH with N34M, R53S, A54L
VL: B1 VL with Y31A
notes: as for B1
B36: 005-C04-36-0 (Fab, V domains shown)
VH: B1 VH with N34W, S52A, S56P
VL: B1 VL with Q55V
notes: as for B1
B37: 005-C04-L2-1-4-5 (Fab, V domains shown)
VH: B1 VH with N34W
VL: B1 VL with Q55W
notes: as for B1
B38: 005-C04-37-2 (Fab, V domains shown)
VH: B1 VH with N34W, R53S, A54L, N59G
VL: B1 VL with Q55W
notes: as for B1
B39: 005-C04-55-32-0 (Fab, V domains shown)
VH: B1 VH with N34M, R53S, S56P
VL: B1 VL with Y31A
notes: as for B1
B40: 005-C04-21-2 (Fab, V domains shown)
VH: B1 VH with I51M, S52A, S56P
VL: B1 VL with Q55V
notes: as for B1
B41: 005-C04-18-10-2 (Fab, V domains shown)
VH: B1 VH with N34M, R53S
VL: B1 VL with Y31A, Q55V
notes: as for B1

molecular target: T1, extracellular domain of human PRLR …; test: ELISA: plate coated with human PRLR extracellular domain, Fab-containing E. coli supernatant, anti-flag-HRP, Amplex Red
Procedure: 96 well microtiter plates were coated with 1 μg per milliliter of human PRLR. Plates were incubated over night at 4° C. After blocking with PBS buffer containing 3% bovine serum albumin, normalized E. coli-derived supernatants containing the Fab variants were added. Detection of formed complexes occurred via the addition of an anti-flag antibody (Sigma, A8592) labeled with horseradish peroxidase.

Binding result, binds:
B1
B2
B3
B4
B5
B6
B7
B8
B9
B10
B11
B12
B13
B14
B15
B16
B17
B18
B19
B20
B21
B22
B23
B24
B25
B26
B27
B28
B29
B30
B31
B32
B33
B34
B35
B36
B37
B38
B39
B40
B41
